For test [1], the target named is Methanocaldococcus jannaschii YcaO (MjYcaO), wild type (Methanocaldococcus jannaschii) (UniProt Q58494). Nature of the test: fluorescence polarisation. (Polarisation of emitted light reports the rotation of a fluorescent probe.)
For test [2], the system named is MkYcaO. Nature of the test: Cyclodehydration reaction, MALDI-TOF-MS. The class given is biochemical, Methanopyrus kandleri. The conditions noted are these: pH 7.0 with additional phosphate.
In test [3] the target is T1, MjYcaO (Methanocaldococcus jannaschii, UniProt Q58494).
T1 sequence (Q58494 1-385): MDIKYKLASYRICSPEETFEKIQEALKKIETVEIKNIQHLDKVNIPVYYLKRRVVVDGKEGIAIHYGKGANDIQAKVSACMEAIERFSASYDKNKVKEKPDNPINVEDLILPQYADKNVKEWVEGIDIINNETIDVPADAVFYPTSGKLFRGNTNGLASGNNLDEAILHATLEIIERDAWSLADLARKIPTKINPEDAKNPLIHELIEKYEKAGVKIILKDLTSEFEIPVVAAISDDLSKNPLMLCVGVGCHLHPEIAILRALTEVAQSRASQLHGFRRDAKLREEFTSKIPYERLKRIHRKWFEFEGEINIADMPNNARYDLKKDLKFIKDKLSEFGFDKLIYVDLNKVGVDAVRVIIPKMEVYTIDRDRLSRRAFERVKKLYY
Nature of the test: Cyclodehydration reaction, MALDI-TOF-MS. The class given is biochemical. As to conditions: wild-type MjYcaO and ATP at pH 7.5, no added anion.

For test [4], the target named is T1, MjYcaO. The test is described as follows: Competition FP binding assay. The conditions noted are these: competitive FP, MBP-tagged 11-mer variant against FITC-labeled 11-mer peptide.
The target in test [5] is T2, Methanocaldococcus jannaschii YcaO (MjYcaO), wild type (Methanocaldococcus jannaschii, UniProt Q58494 1-385).
T2 sequence: T1 sequence (Q58494 1-385)
The test is described as follows: fluorescence polarisation.

Test [6] has as its target T2, Methanocaldococcus jannaschii YcaO …. The test is described as follows: fluorescence polarisation. This is another data set of the same source.
The target of test [7] is T3, MjYcaO W180V variant (Methanocaldococcus jannaschii, UniProt Q58494 1-385, W180V).
T3 sequence: T1 sequence (Q58494 1-385) with W180V
Nature of the test: fluorescence polarisation.

Test [8] addresses T4, MjYcaO W180F variant (Methanocaldococcus jannaschii, UniProt Q58494 1-385, W180F).
T4 sequence: T1 sequence (Q58494 1-385) with W180F
Nature of the test: fluorescence polarisation.

The target in test [9] is T5, MjYcaO Y66F variant (Methanocaldococcus jannaschii, UniProt Q58494 1-385, Y66F).
T5 sequence: T1 sequence (Q58494 1-385) with Y66F
The test is described as follows: fluorescence polarisation.

The target of test [10] is T6, MjYcaO W303A variant (Methanocaldococcus jannaschii, UniProt Q58494 1-385, W303A).
T6 sequence: T1 sequence (Q58494 1-385) with W303A
Nature of the test: fluorescence polarisation.

Test [11] has as its target T7, MjYcaO Y66G variant (Methanocaldococcus jannaschii, UniProt Q58494 1-385, Y66G).
T7 sequence: T1 sequence (Q58494 1-385) with Y66G
Nature of the test: fluorescence polarisation.

Test [12] concerns the target T8, MjYcaO Y66L variant (Methanocaldococcus jannaschii, UniProt Q58494 1-385, Y66L).
T8 sequence: T1 sequence (Q58494 1-385) with Y66L
Nature of the test: fluorescence polarisation.

In test [13] the target is T9, MjYcaO Y66A variant (Methanocaldococcus jannaschii, UniProt Q58494 1-385, Y66A).
T9 sequence: T1 sequence (Q58494 1-385) with Y66A
Nature of the test: fluorescence polarisation.

Test [14] deals with T2, Methanocaldococcus jannaschii YcaO …. The test is described as follows: crystal structure.

Substitutions are numbered along the chain they refer to. Where no end group is shown, it is not given here. Where only a bound is given, the exact number is not on record here.

MjMcrA Y(+1)C 11-mer peptide … displayed a fold increase in Ki against the wild-type peptide in [1] of 2 fold. Same read-out and setting: the figure for “MBP-tagged MjMcrA peptide, Gly(-3) to Ala” is over 6 fold.

Turning to RLGFYGCDLQD [Y(+1)C 11-mer], the cyclodehydration result in test [2] is on record as “enzyme-dependent conversion to the dehydrated species”. Moreover, the “cyclodehydration (change of peptide mass)” value in test [3] is “almost no change”. Moreover, the “increase in Ki relative to wild-type” value in test [4] is 2 fold. In turn, MjMcrA Y(+1)S 11-mer peptide had a fold increase in Ki against the wild-type peptide in [1] of 2 fold.

In test [1], “MBP-tagged MjMcrA peptide, F(-2)A variant” came in with a fold increase in Ki against the wild-type peptide of 3 fold.

In the case of “MBP-tagged MjMcrA peptide, Leu(-4) to Ala”, the fold increase in Ki against the wild-type peptide in [1] is over 6 fold. The same measure, in the same setting: for “MBP-tagged MjMcrA peptide, D(+2)A variant” the value was 4 fold.

Take RLGFYGYDLQD (not fully specified (N-terminus); also: FITC label (site not given here)) [FITC-labeled 11-mer MjMcrA peptide RLGFYGYDLQD (without the double Gly linker)]: in test [5], the binding result was “binds”. On to GGRLGFYGYDLQD (not fully specified (N-terminus); also: FITC label (site not given here)) [FITC-labeled 13-mer MjMcrA peptide GG-RLGFYGYDLQD], for which the binding result in test [6], in test [7], in test [8], in test [9], in test [10] and in test [11] was “binds” throughout. For the same molecule, the binding result in [12] and in test [13] was “binds” throughout. For RLGFYGYDLQD [MjMcrA 11-mer peptide RLGFYGYDLQD], the binding result in test [14] was “binds”.
